# Assay results reported in publication PMC6428836, “A complex of novel protease inhibitor, ovostatin homolog, with its cognate proteases in immature mice uterine luminal fluid” (Scientific Reports, 2019).
# Molecular target: the molecule itself
# Assay: SEC + other: non-reducing and reducing SDS-PAGE; about 700 kDa on Sephacryl S-400, about 360 kDa in non-reducing SDS-PAGE, traces of the 162 kDa subunit under reduction; tetramer of two disulfide-linked dimers
protein,measurement,value
"mouse ovostatin homolog (natural protein, mouse (endogenous in immature mouse ULF), UniProt Q3UU35 20-1456, looked up, ovostatin homolog, mouse, NP_001001179.2; predicted subunit 162 kDa; 360 kDa in non-reducing SDS-PAGE, about 700 kDa by gel filtration; In ULF most subunits are seen as an 88 kDa fragment under reducing conditions, only traces as the 162 kDa subunit; also called mOH; 360 kDa protein; source: endogenous, uterine luminal fluid (ULF) of DES-treated immature ICR mice; also partly purified from it …) AEPRYILWVSSVVQRFSSEKACLHLLNLNESVSLSVTLEYDGSSTTIFDQPVDEGNFYACADFKVSQMSSEQLAFVALLVQGNTLKISERRSVAIAAEENATFVQTDTPVHKPGDTVHFRVVTLNIWLKPVDDLYPLITVQDPQSNVIFQWINVTTFRNITQLSFQLTPEPILGDYTIVIKTQSGTTVMDHFTVNRDVLPKFEVELTAPETITIADSQFQMVTCAKYTYGQPVQGKAQIKVCRELFSPAHCESNENEICEQFTVQLKDGCASHIINTKVFQLDRSGLFMTLNVNEVVTESGTGVQMSKTHSVFITSVLGTVSFENMDPFYRRGITYFGTLKFSGPNNTPLVDKLLQLELDGKPVGNYTTDENGEARFSINTSEIFGAQISLKAVYVRPRSCHRSSWLSPEYLDAYFSASRFYSQTSSFTKIILEPKQLPCDQEKMFSVLYSLNPEAYKEASDVTFFYLVMVRGGISRSGQKQVRVQAWNGNFSFPISINADLAPSADLFVYTLHPSGEIVADNVRLQIEKCFKNKVSINFSRDKDLPGSNTSVHLQAAPDSFCALRAVDKSALLLNHGQEMTPESVYFTLPYIHQYGYFYNGLNLDDQQAEPCIPQKDLFYNGLYYTPTGNIWDGDLSNLLSNMGLKIFTNLHYRKPEVCSSQENQPLLRTFDHPNERIMMYGGGAPPSSAFHDSVDSISHAKVAIKETVRTNFPRTWIWNLVSVDSSGTANVSFLVPDTITQWEASAFCVNGNAGFGISPKVSLQISQPFFVEVTSPFSVVRSEQSDMVVTVFNYLTTCVEISVQLEASENYEASINTQRNTDSEVLQAGEQKTYVWTIIPKTLGKVNVTVVATSKQSRACPNDASKEQDVHWKDTVVKTMLVEAEGIEKEATQSFLICPKGTKASKQTLLELPSNVVEGSVRSFVTIVGDILGVAMQNLESLLQMPYGCGEQNIAQLASDVYILDYLKATDQLTEELKSKAQRLLSNGYQNHLSFKNYDGSYDVFCQSNQEGSTWLSALSFKTVEKMKEYIFIEETVPKQTLIWLVKKQKSNGCFRRDEKHVDTAQEGREGDQEDIALTAYVVGVFLEVGLNASFPALRNGLYCLEEAFSNGVTNGYTQAILAYVFALAGKEQQAKSLLSILDKSATKTNNMIYWERDEKPETDNSPSFIPSALSGETEKTCYVLLAVLSQDTQDLDYASKIVQWLAQRMNSHGGFSAMQDTTVCLLALTQYMKLTGSNPQNTITLSSEESEEVFYVNRNKRLLVQHSKVSKGHQQYTVDVEGDGCSFIQATLRYNVPLPKEASGFSLSVKTGKSNSSDEFQTKFELTVTLTYTGARESSVTVLVDVKMLSGFTPVVSSTEELKFNSQVTKTDIKNGHVLFYLENVPKEATSLTFSIEQTNHVANIQPAPVTVYSYEKGEYAFDSYNINSISDSQ",stoichiometry N,4
